In patent US20070197457A1:

What was measured:
[1] = target: GAL4 DNA binding domain fused in-frame to full-length SMAD1 (UniProt P04386); experiment: cell-based or functional assay
[2] = target: SMAD1 (wild-type, full-length R-SMAD); experiment: cell-based or functional assay

dominant-negative TAK1 (TAK1dn) mutant (K63W) (from UniProt Q62073 1-579) (enzyme)
GAL4/UAS-luciferase reporter, SMAD trans-activation activity at higher amounts of TAK1dn [1]: 70% | GAL4/UAS-luciferase reporter, SMAD trans-activation, increase at low concentrations of TAK1dn [1]: 35%

constitutively active TAK1 (TAK1ca) lacking the 22 N-terminal amino acids (from UniProt Q62073 23-579) (enzyme)
GAL4/UAS-luciferase reporter, caALK6-receptor-mediated trans-activation of SMAD1, maximum inhibition [1]: 40 | SMAD1-SBE CAT reporter (SMAD1-mediated transcription), maximum reduction [2]: 10%
